In patent US20130177528A1, “COMPOSITIONS AND METHODS FOR INHIBITING VIRAL INFECTION” (WESTERN UNIVERSITY OF HEALTH SCIENCES, priority 2011, published 2013):

Experiments:
[1] = tested on: HSV-2 (333 gJ-reporter virus); experiment: HSV-2 infection of HeLa cells, ONPG assay (Example 4); format: cell-based; details: virus pre-incubated; starting concentration 1 mg/ml
Description: In this experiment different clinical strains of HSV-1 (F, G, and MP strains of HSV-1 [37] at 25 pfu/cell) were either pre-incubated with 1×PBS (control) or with CN at the concentrations indicated in FIG. 8, panel A for 90 min at room temperature. After 90 min of incubation the two pools of viruses were incubated with Nectin-1 receptor expressing CHO Igβ cells that express β-galactosidase upon viral entry as described. The viral infection blocking was measured by ONPG assay (FIG. 8, panel A). Similar experiment was conducted using Lac Z encoded HSV-2 (333 gJ-reporter virus). HSV-2 is a genital herpes virus. […] Each value shown is the mean of three or more determinations (±SD).

HSV-1 (KOS) gL86 [2] = experiment: HSV-1 entry into natural target cells (HeLa, human corneal fibroblasts), cells pre-incubated with CN (Example 9); format: cell-based, herpes simplex virus type-1; details: for HSV-1 entry (β-galactosidase activity, OD 410): 25 pfu/cell, 6 h
Description: In this experiment (A) HeLa and (B) primary cultures of human corneal fibroblasts (CF) were used. They were either pre-treated with contortrostatin (CN) at indicated concentrations or mock-treated (positive control [+]) with phosphate saline buffer for 90 min at room temperature. β-galactosidase-expressing recombinant virus herpes simplex virus type-1 (HSV-1; KOS) gL86 (25 pfu/cell) was used to infect cells. Uninfected cells were kept as negative control (−). After 6 h, the cells were washed, permeabilized and incubated with […] expressed from the input viral genome. The enzymatic activity was measured at an optical density of 410 nm (OD 410). Error bars represent SD. a=significant difference from controls and/or treatments (P<0.05, t-test).
To confirm blocking activity of CN on HSY-I entry, HeLa and primary cultures of human CF were used. It has been shown that HeLa and human CF naturally express gD receptors. […] This raises the possibility that the effect of CN can be more pronounced in the natural target cells and that it may not depend on gD receptors. […] The inhibitory effect is likely dependent on the type of integrins expressed on the surface of cells.

HSV-1 (KOS) gL86 [3] = experiment: HSV-1 entry into gD receptor expressing CHO-K1 cells, cells pre-incubated with CN (Example 8); format: cell-based, herpes simplex virus type-1; details: for HSV-1 viral entry (β-galactosidase activity, OD 410): 25 pfu/cell, 6 h
Description: In this experiment, Chinese hamster ovary (CHO-K1) cells expressing glycoprotein D (gD) receptors: (A) 3-OST-3, (B) herpesvirus entry mediator and (C) nectin-1 were pre-incubated with contortrostatin (CN) at indicated concentrations or mock-treated (positive control [+]) with phosphate saline buffer for 90 min at room temperature. This treatment was followed by infection with β-galactosidase-expressing recombinant virus herpes simplex virus type-1 (HSV-1; KOS) gL86 (25 pfu/cell). Uninfected cells were kept as negative control (−). After 6 h, the cells were washed, permeabilized and incubated with o-nitro-phenyl-β-o-galactopyranoside (ONPG) substrated (3.0 mg/ml) for quantitation of β-galactosidase activity expressed from the input viral genome. The enzymatic activity was measured at an optical density of 410 nm (OD 410). Error bars represent SD. a=significant difference from controls and/or treatments (P<0.05, t-test).
Viral Entry Assay. Viral entry assays were based on quantitation of β-galactosidase expressed from the viral genome in which β-galactosidase expression is inducible by HSV infection. Cells were transiently transfected in 6-well tissue culture dishes, using Lipofectamine 2000 (In vitrogen Corp) with plasmids expressing HSV-1 entry receptors (necitn-1, HVEM and 3-OST-3 expression plasmids) at 1.5 μg per well in 1 ml. At 24 hr post-transfection, cells were re-plated in 96-well tissue culture dishes (2×10^4 cells per well) at least 16 hr prior to infection. Cells were washed and exposed to serially dilute pre-incubated virus with […] or with 1×PBS at two fold dilutions for 2 hr at room temperature. In a parallel experiment the cells were also pre-incubated with NBE for 2 hr at room temperature before infection with virus. Later the cells were washed with 1×PBS and allowed 6 hr at 37° C. before solubilization in 100 μl of PBS containing 0.5% NP-40 and the -galactosidase substrate, o-nitro-phenyl-D-galactopyranoside (ONPG; ImmunoPure, PIERCE, Rockford, Ill., 3 mg/ml). The enzymatic activity was monitored at 410 nm by spectrophotometry at several time points after the addition of ONPG in order to define the interval over which the generation of the product was linear with time. Microscopy was performed using 20×objective of the microscope (Nikon). The slide book version 3.0 was used for images. All experiments were repeated a minimum of three times.
To determine the effect of CN on HSV-1 entry, we first tested the ability of HSV-1 in the presence and absence of CN to infect CHO-KI cells expressing gD receptors. HSV-1 entry into cells was determined by using β-galactosidase expressing HSV-1 reporter virus (gL86).

B1: contortrostatin (protein)
chain: DAPANPCCDAATCKLTTGSQCADGLCCDQCKFMKEGTVCRRARGDDLDDYCNGISAGCPRNPFHA
[1]
  HSV-2 infection of HeLa cells (dose response, ONPG assay): blocks infection
HSV-1 (KOS) gL86 [2]; HeLa cells pre-incubated 90 min
  HSV-1 entry (β-galactosidase activity, OD 410): significant blocking of HSV-1 entry
HSV-1 (KOS) gL86 [2]; natural target cells (HeLa and CF)
  concentration at which strong inhibition of entry was observed: < 1 µM
HSV-1 (KOS) gL86 [2]; primary human corneal fibroblasts (CF) pre-incubated 90 min
  HSV-1 entry (β-galactosidase activity, OD 410): significant blocking of HSV-1 entry
HSV-1 (KOS) gL86 [3]; CHO-K1 cells expressing 3-OST-3 pre-incubated 90 min
  HSV-1 viral entry (β-galactosidase activity, OD 410): significantly blocked viral emry in a dose-dependent manner
HSV-1 (KOS) gL86 [3]; CHO-K1 cells expressing HVEM pre-incubated 90 min
  HSV-1 viral entry (β-galactosidase activity, OD 410): significantly blocked viral emry in a dose-dependent manner
HSV-1 (KOS) gL86 [3]; CHO-K1 cells expressing nectin-1 pre-incubated 90 min
  HSV-1 viral entry (β-galactosidase activity, OD 410): significantly blocked viral emry in a dose-dependent manner
HSV-1 (KOS) gL86 [3]; gD-receptor expressing CHO-K1 cells
  concentrations at which entry blocking activity was pronounced: micromolar concentrations
